Among the data in US20210355194A1 are epitope binning score, MFI and MFI/Baseline values, retold here.

Experiment [1] has as its target SARS-CoV-2 antigen of the epitope binning (SARS-CoV-2) (UniProt P0DTC2). Description: epitope binning; competitor 1-35.
Experiment [2] shares this target. The experiment can be described thus: epitope binning; competitor 2-11.
Experiment [3] shares this target. The experiment can be described thus: epitope binning; competitor 2-5.
Experiment [4] has the same target. Description: epitope binning; competitor CR3022.
For experiment [5] the target is unchanged. The experiment can be described thus: epitope binning; competitor 2-2.
Experiment [6] shares this target. Description: epitope binning; competitor 2-8.
The target is the same in experiment [7]. Description: epitope binning; competitor 1-16.
Experiment [8] shares this target. The experiment can be described thus: epitope binning; competitor Acro mAb.
The target is the same in experiment [9]. The experiment can be described thus: epitope binning; competitor 1-32.
For experiment [10] the target is unchanged. The experiment can be described thus: epitope binning; competitor 2-6.
The target in experiment [11] is ACE2 on VERO E6 cells (African green monkey). The experiment can be described thus: flow cytometry, VERO E6 cells, positive control.

Take CR3022 (antibody): the epitope binning score in [1] came to 2; in [2] it was 1; in [3], 0; in [4], 0; in experiment [5], 0; in [6] it was 0. The epitope binning score in [7] is 2; in experiment [8], 2; in experiment [9], 1; in experiment [10], 2.

In experiment [11], “S1 RBD Fc fusion (from UniProt P0DTC2 319-541)” had an MFI of 26100 and an MFI/Baseline of 75.9.
